The values below come from publication PMC10681739, “High-throughput data and modeling reveal insights into the mechanisms of cooperative DNA-binding by transcription factor proteins”.

The chains are these.
B1: Table S2 A row 1132 (dsDNA)
DNA 1: GCGCAAAGCCGGAAGGAGGGGTTTGCGGCTGGGGAG
DNA 2: CTCCCCAGCCGCAAACCCCTCCTTCCGGCTTTGCGC
B2: Table S2 A row 1610 (dsDNA)
DNA 1: ACACCTCAGGCAGGATGTGGTAGGGGTTGCCCCAGA
DNA 2: TCTGGGGCAACCCCTACCACATCCTGCCTGAGGTGT
B3: Table S2 A row 147 (dsDNA)
DNA 1: GCAGTCAGAAGGTGCGGATGCGGTAAGGTATGCGCT
DNA 2: AGCGCATACCTTACCGCATCCGCACCTTCTGACTGC
B4: Table S2 A row 1069 (dsDNA)
DNA 1: AAAGCATTTCCTGCCTTGACTTAACCACAAGACAGG
DNA 2: CCTGTCTTGTGGTTAAGTCAAGGCAGGAAATGCTTT
B5: Table S2 A row 1319 (dsDNA)
DNA 1: GAGGAACCCAAAGTAGGATGTGGTTTTGCAATTGGA
DNA 2: TCCAATTGCAAAACCACATCCTACTTTGGGTTCCTC
B6: Table S2 A row 1755 (dsDNA)
DNA 1: CAGAGCCAAACATGCGGAAGTGGTTACGTGTACTAG
DNA 2: CTAGTACACGTAACCACTTCCGCATGTTTGGCTCTG
B7: Table S2 A row 104 (dsDNA)
DNA 1: TGGGGACCACTGTCAGGATGTGGTCACTGGAGTCAC
DNA 2: GTGACTCCAGTGACCACATCCTGACAGTGGTCCCCA
B8: Table S2 A row 123 (dsDNA)
DNA 1: TTTATCATGAATGCAGGATGTGGGCAGACTCACAGC
DNA 2: GCTGTGAGTCTGCCCACATCCTGCATTCATGATAAA
B9: Table S2 A row 391 (dsDNA)
DNA 1: TGCAAAAAAACAGGAAACACCCAGCCGCAAATTATA
DNA 2: TATAATTTGCGGCTGGGTGTTTCCTGTTTTTTTGCA
B10: Table S2 A row 1614 (dsDNA)
DNA 1: ACCTCAAGCCCAGGATGTGGTTTGGCCACTATTGAG
DNA 2: CTCAATAGTGGCCAAACCACATCCTGGGCTTGAGGT
B11: Table S2 A row 1419 (dsDNA)
DNA 1: TTCACTTCCACCACTTCCTGTGGGTTTTGTTCATCC
DNA 2: GGATGAACAAAACCCACAGGAAGTGGTGGAAGTGAA
B12: Table S2 A row 1276 (dsDNA)
DNA 1: ATTTCGCTGAAAACAGGAAACCACGAAGCCCAGATG
DNA 2: CATCTGGGCTTCGTGGTTTCCTGTTTTCAGCGAAAT
B13: Table S2 A row 1086 (dsDNA)
DNA 1: TTTCTGACACTCTCAGGATGTGGGTTTTCACACTGT
DNA 2: ACAGTGTGAAAACCCACATCCTGAGAGTGTCAGAAA
B14: Table S2 A row 329 (dsDNA)
DNA 1: TCCAGCTCCACAGGATGTGGTGAGTGAAGCAGCAAG
DNA 2: CTTGCTGCTTCACTCACCACATCCTGTGGAGCTGGA
B15: Table S2 A row 364 (dsDNA)
DNA 1: AATGAAGGAGGGGCAGGATGTGGTCTTGGTGAATCA
DNA 2: TGATTCACCAAGACCACATCCTGCCCCTCCTTCATT
B16: Table S2 A row 1336 (dsDNA)
DNA 1: CACCTCGGGGGTTTCCGGTCCGTGGTTAGCTCCTTC
DNA 2: GAAGGAGCTAACCACGGACCGGAAACCCCCGAGGTG
B17: Table S2 A row 601 (dsDNA)
DNA 1: CATTCAGTAAAAGGATGTGGTTTAGAACAGATGAAA
DNA 2: TTTCATCTGTTCTAAACCACATCCTTTTACTGAATG
B18: Table S2 A row 990 (dsDNA)
DNA 1: TCCTAAAGCAGGAAATAGTGAGGCTACCGCAGTGTC
DNA 2: GACACTGCGGTAGCCTCACTATTTCCTGCTTTAGGA
B19: Table S2 A row 1604 (dsDNA)
DNA 1: GGTGTGTTCTGGGGAGGAAGTGGGTTTTCAGGTTGT
DNA 2: ACAACCTGAAAACCCACTTCCTCCCCAGAACACACC
B20: Table S2 A row 132 (dsDNA)
DNA 1: CGTCTAATTGCAGGAAGTGGTTTGAAATGTTAATCT
DNA 2: AGATTAACATTTCAAACCACTTCCTGCAATTAGACG
B21: Table S2 A row 638 (dsDNA)
DNA 1: CAAGGCACCAACGGATGTGGTATCTGGTGAGGGCTT
DNA 2: AAGCCCTCACCAGATACCACATCCGTTGGTGCCTTG
B22: Table S2 A row 1358 (dsDNA)
DNA 1: CAGCCTTGCCGGAAGGCAGAGTTTGTGGTCAGACCG
DNA 2: CGGTCTGACCACAAACTCTGCCTTCCGGCAAGGCTG
B23: Table S2 A row 316 (dsDNA)
DNA 1: GGCCTGTCACACACAGGAAGCGGTCACAGAAAAGCT
DNA 2: AGCTTTTCTGTGACCGCTTCCTGTGTGTGACAGGCC
B24: Table S2 A row 186 (dsDNA)
DNA 1: GAAGTGTGCTCTTCCGGTACCTGCGGTTCGTTGCGC
DNA 2: GCGCAACGAACCGCAGGTACCGGAAGAGCACACTTC
B25: Table S2 A row 155 (dsDNA)
DNA 1: GGGACAGACTCTCCAGGATGTGGTTGGATTTTGGGC
DNA 2: GCCCAAAATCCAACCACATCCTGGAGAGTCTGTCCC
B26: Table S2 A row 719 (dsDNA)
DNA 1: TTGCCATTCCAGGAAATGAGCTTACCACATTGACTG
DNA 2: CAGTCAATGTGGTAAGCTCATTTCCTGGAATGGCAA
B27: Table S2 A row 144 (dsDNA)
DNA 1: GCCACACTGGCGGAAATGGTGGTTACTGTTCGAGCC
DNA 2: GGCTCGAACAGTAACCACCATTTCCGCCAGTGTGGC
B28: Table S2 A row 550 (dsDNA)
DNA 1: AGCAGGTATACCACTTCCTGTGGTTATCATTTGAGG
DNA 2: CCTCAAATGATAACCACAGGAAGTGGTATACCTGCT
B29: Table S2 A row 866 (dsDNA)
DNA 1: CTGAAACAGGAAGCTGAGGGTGCGGTTGGGGGAGGA
DNA 2: TCCTCCCCCAACCGCACCCTCAGCTTCCTGTTTCAG
B30: Table S2 A row 793 (dsDNA)
DNA 1: GTTCAGCAGGAAGTGGATGTGGATGTGTGGTTGCCA
DNA 2: TGGCAACCACACATCCACATCCACTTCCTGCTGAAC

The target in the data set is ETS1:RUNX1 (Homo sapiens, UniProt P14921;Q01196 full;full). Kind of data set: gcPBM; 1 nM ETS1 + 25 nM RUNX1, anti-ETS1 signal, normalised. As to conditions: tags: N-terminal GST (pDEST15), kept (PMC6008103); copies: 1;1; label: surface-attached array probe.
ETS1:RUNX1, sequence (P14921 whole entry, chain 1 of 2): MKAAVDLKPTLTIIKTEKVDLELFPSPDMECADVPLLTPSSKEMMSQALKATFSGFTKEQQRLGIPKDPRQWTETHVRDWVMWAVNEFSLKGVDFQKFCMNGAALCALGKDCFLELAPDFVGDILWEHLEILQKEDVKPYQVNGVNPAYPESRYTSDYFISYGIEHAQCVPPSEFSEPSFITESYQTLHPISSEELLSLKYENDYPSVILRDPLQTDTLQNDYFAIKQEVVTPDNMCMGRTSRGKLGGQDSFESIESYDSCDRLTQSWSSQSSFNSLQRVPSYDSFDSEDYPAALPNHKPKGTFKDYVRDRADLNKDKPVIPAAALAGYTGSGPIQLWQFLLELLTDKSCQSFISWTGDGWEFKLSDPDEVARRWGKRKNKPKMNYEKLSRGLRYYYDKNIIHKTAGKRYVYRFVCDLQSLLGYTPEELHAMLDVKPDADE
ETS1:RUNX1, sequence (Q01196 whole entry, chain 2 of 2): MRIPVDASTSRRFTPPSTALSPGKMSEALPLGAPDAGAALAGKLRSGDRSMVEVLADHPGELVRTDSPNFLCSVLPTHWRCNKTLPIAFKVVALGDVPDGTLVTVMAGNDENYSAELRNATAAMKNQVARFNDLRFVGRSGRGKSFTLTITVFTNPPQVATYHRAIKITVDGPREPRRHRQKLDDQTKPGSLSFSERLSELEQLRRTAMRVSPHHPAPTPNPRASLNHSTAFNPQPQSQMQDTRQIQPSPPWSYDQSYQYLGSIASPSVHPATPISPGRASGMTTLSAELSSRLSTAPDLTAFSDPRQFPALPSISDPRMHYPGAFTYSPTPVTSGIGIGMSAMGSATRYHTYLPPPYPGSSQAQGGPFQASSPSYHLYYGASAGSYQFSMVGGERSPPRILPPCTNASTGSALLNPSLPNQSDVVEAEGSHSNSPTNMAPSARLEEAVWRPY
Turning to B1, the binding signal is 7650 PBM fluorescence, median of replicate spots.

For the molecule B2, the binding signal was 6800 PBM fluorescence, median of replicate spots.

B3: the binding signal is 7480 PBM fluorescence, median of replicate spots.

As for B4, the binding signal was 6290 PBM fluorescence, median of replicate spots.

For B5, the binding signal was 6860 PBM fluorescence, median of replicate spots.

Regarding B6, the binding signal was 6770 PBM fluorescence, median of replicate spots.

B7: the binding signal was 6580 PBM fluorescence, median of replicate spots.

Regarding B8, the binding signal was 6920 PBM fluorescence, median of replicate spots.

Consider B9, for which the binding signal is 6020 PBM fluorescence, median of replicate spots.

For the molecule B10, the binding signal was 6100 PBM fluorescence, median of replicate spots.

For the molecule B11, the binding signal was 7320 PBM fluorescence, median of replicate spots.

As to B12, the binding signal was 7820 PBM fluorescence, median of replicate spots.

Take B13: the binding signal is 6500 PBM fluorescence, median of replicate spots.

Consider B14, for which the binding signal was 6260 PBM fluorescence, median of replicate spots.

As for B15, the binding signal is 7160 PBM fluorescence, median of replicate spots.

As for B16, the binding signal is 6540 PBM fluorescence, median of replicate spots.

As to B17, the binding signal was 6340 PBM fluorescence, median of replicate spots.

In the case of B18, the binding signal is 8320 PBM fluorescence, median of replicate spots.

Consider B19, for which the binding signal is 7210 PBM fluorescence, median of replicate spots.

Turning to B20, the binding signal was 7750 PBM fluorescence, median of replicate spots.

For the molecule B21, the binding signal is 6740 PBM fluorescence, median of replicate spots.

For B22, the binding signal was 6650 PBM fluorescence, median of replicate spots.

As to B23, the binding signal is 7880 PBM fluorescence, median of replicate spots.

Regarding B24, the binding signal was 7140 PBM fluorescence, median of replicate spots.

With B25, the binding signal was 7450 PBM fluorescence, median of replicate spots.

Regarding B26, the binding signal was 6220 PBM fluorescence, median of replicate spots.

Regarding B27, the binding signal is 6760 PBM fluorescence, median of replicate spots.

With B28, the binding signal is 8000 PBM fluorescence, median of replicate spots.

Take B29: the binding signal is 6680 PBM fluorescence, median of replicate spots.

With B30, the binding signal was 7060 PBM fluorescence, median of replicate spots.
